Measured values reported in paper PMC6198961, “The dimeric structure of wild-type human glycosyltransferase B4GalT1” (PLoS ONE, 2018).

Biological target: the molecule itself
Assay: SEC; gel filtration on a 24 ml Superdex 200 HR 10/30 column calibrated with γ-globulin (158 kDa), ovalbumin (44 kDa) and myoglobin (17 kDa); monomer and dimer

B1: catalytic domain of human B4GalT1 (Asp99-Ser398), wild type (domain or fragment, UniProt P15291 99-398, looked up)
chain: DSSPVVDSGPGPASNLTSVPVPHTTALSLPACPEESPLLVGPMLIEFNMPVDLELVAKQNPNVKMGGRYAPRDCVSPHKVAIIIPFRNRQEHLKYWLYYLHPVLQRQQLDYGIYVINQAGDTIFNRAKLLNVGFQEALKDYDYTCFVFSDVDLIPMNDHNAYRCFSQPRHISVAMDKFGFSLPYVQYFGGVSALSKQQFLTINGFPNNYWGWGGEDDDIFNRLVFRGMSISRPNAVVGRCRMIRHSRDKKNEPNPQRFDRIAHTKETMLSDGLNSLTYQVLDVQRYPLYTQITVDIGTPS
notes: EC 2.4.1.38), human, residues Asp99-Ser398: a piece of the stem domain (Asp99-Leu125) and the catalytic domain (Ser126-Ser398); the construct's calculated molecular weight is printed as 36.35 kDa; The tag is surmised from the nickel purification; In equilibrium between monomer and dimer; also called Beta-1,4-galactosyltransferase 1; recombinant B4GalT1; source: E. coli BL21(DE3) with the CyDisCo …
In the case of B1, the “stoichiometry N” value is reported as 2.
